For experiment [1], the target named is T1, full-length PlexA2 with an N-terminal 6xMyc tag (mouse, UniProt P70207 35-1894).
T1 construct: Plexin-A2, mouse, full length (FL); written as one molecule; also called PlexinA2; Myc-FL-A2; source: COS7, transiently transfected, on cells; HEK293T, transfected, in lysate; not shown: 6xMyc, N-terminal, kept
As to the kind of experiment: saturation binding of AP-clustered Fc fusion protein to transfected cells; saturation binding curve of Sema5A-Fc, oligomerized with anti-Fc conjugated to human placental alkaline phosphatase, on COS7 cells expressing PlexA1 or PlexA2. The note with it: one partner purified.

In experiment [2] the target is T2, full-length PlexA1 with an N-terminal 6xMyc tag (mouse, UniProt P70206 28-1894).
T2 construct: Plexin-A1, mouse, full length (FL); written as one molecule; also called PlexinA1; Myc-FL-A1; source: COS7, transiently transfected, on cells; HEK293T, transfected, in lysate; not shown: 6xMyc, N-terminal, kept
T2 sequence (P70206 28-1894): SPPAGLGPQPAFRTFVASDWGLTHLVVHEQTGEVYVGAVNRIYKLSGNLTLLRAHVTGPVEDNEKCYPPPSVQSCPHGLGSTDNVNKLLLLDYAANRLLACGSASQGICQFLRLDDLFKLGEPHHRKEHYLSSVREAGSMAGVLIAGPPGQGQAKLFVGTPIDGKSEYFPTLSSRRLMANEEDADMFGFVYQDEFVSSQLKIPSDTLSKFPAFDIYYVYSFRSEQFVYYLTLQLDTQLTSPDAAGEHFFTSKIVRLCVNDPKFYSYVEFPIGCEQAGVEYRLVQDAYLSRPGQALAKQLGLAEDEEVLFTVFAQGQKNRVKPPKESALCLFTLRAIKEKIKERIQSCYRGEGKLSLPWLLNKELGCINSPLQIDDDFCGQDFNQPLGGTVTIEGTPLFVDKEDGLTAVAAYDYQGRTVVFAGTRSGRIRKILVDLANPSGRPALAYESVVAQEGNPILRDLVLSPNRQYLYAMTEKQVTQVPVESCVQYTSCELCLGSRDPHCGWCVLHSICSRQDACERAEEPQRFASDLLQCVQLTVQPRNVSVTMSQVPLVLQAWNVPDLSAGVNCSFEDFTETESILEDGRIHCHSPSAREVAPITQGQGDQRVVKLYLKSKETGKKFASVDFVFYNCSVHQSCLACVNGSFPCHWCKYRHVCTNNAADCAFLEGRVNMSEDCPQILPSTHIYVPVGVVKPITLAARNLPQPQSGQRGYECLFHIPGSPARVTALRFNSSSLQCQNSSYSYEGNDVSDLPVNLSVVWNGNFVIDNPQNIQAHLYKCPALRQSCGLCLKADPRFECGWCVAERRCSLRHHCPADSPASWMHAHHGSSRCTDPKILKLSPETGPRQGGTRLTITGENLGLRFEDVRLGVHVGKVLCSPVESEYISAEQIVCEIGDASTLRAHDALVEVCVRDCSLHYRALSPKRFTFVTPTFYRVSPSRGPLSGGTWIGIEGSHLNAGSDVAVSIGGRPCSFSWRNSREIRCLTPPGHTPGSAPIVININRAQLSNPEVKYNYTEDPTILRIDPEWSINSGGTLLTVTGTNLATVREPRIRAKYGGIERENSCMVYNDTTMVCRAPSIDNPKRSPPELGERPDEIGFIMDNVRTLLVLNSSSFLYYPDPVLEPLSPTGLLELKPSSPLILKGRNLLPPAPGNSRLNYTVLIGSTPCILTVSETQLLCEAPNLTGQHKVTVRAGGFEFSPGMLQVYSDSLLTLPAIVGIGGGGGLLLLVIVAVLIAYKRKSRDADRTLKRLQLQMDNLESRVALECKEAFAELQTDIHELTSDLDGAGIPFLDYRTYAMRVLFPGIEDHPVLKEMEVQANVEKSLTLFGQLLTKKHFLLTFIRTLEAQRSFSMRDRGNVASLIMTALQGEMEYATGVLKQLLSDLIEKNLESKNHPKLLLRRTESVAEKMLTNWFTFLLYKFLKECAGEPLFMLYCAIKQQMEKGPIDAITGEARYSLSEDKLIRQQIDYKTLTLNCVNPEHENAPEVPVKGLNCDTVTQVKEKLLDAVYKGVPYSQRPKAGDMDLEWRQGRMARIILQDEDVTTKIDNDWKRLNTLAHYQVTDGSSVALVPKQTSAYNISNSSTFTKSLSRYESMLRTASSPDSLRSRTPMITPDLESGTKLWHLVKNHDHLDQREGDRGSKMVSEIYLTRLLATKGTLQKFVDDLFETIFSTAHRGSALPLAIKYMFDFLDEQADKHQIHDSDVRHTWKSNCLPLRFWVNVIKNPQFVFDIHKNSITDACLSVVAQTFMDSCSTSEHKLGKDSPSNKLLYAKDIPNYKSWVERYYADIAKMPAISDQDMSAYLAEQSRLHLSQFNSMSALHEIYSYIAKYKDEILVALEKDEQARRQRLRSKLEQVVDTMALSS
The experiment is described as above. The note with it: one partner purified.

T1 sequence (P70207 35-1894): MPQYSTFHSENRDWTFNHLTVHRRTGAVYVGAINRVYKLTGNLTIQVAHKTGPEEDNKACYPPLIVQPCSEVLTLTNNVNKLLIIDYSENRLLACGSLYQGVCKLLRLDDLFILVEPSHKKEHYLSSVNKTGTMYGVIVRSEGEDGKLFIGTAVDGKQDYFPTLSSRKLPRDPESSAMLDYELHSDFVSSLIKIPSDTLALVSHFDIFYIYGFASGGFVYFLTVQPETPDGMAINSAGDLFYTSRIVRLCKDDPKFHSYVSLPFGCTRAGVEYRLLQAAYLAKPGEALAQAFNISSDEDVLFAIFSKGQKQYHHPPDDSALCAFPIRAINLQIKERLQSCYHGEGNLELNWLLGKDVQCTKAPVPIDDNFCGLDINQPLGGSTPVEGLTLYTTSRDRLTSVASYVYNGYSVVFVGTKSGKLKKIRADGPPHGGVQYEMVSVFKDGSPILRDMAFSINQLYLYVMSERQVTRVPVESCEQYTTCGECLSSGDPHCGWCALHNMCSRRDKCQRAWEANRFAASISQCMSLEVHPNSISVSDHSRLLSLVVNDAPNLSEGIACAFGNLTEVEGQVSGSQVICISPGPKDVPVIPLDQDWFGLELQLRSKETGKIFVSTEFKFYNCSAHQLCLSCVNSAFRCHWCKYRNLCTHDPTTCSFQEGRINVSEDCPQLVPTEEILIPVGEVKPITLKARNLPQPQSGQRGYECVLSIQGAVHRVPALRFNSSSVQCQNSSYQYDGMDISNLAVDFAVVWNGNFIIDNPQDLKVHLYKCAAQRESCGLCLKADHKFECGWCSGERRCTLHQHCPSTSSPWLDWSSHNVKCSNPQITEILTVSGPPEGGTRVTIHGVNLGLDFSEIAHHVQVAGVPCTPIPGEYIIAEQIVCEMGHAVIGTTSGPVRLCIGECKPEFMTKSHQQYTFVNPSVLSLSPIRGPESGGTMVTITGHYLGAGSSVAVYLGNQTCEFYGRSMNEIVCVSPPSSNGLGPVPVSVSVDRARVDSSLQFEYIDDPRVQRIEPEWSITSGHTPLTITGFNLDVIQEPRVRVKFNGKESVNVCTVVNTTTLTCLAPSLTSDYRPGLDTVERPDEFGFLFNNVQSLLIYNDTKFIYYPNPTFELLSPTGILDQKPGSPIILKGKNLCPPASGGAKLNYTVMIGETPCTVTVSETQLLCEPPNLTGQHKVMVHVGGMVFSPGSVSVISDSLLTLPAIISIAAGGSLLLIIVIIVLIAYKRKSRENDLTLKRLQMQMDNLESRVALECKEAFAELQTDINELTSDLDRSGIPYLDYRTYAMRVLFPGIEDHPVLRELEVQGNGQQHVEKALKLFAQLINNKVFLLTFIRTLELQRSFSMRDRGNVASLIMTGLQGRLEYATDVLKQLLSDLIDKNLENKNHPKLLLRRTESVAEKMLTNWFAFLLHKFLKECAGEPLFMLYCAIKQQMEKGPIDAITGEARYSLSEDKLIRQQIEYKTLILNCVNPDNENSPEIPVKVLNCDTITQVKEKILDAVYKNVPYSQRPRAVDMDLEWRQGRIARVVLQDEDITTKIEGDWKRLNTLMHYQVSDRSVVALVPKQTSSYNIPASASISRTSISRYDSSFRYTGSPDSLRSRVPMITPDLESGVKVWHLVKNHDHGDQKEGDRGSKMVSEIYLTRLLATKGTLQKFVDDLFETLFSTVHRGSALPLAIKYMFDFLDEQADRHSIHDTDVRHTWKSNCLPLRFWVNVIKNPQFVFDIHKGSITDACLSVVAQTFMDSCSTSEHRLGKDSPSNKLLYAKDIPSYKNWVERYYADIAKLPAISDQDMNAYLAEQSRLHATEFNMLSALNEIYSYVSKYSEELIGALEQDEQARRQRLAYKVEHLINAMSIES

B1: Sema5A-Fc (Sema5A ectodomain fused to Fc) (Fc fusion, rat, UniProt D3ZTD8 23-961, looked up)
chain: ETQDPAKCQRAEHPVVSYKEIGPWLREFRAENAVDFSRLTFDPGQKELVVGARNYLFRLQLEDLSLIQAVQWECDEATKKACYSKGKSKEECQNYIRVLLVGGDRLFTCGTNAFTPVCTIRSLSNLTEIHDQISGMARCPYSPQHNSTALLTASGELYAATAMDFPGRDPAIYRSLGTLPPLRTAQYNSKWLNEPNFVSSYDIGNFTYFFFRENAVEHDCGKTVFSRAARVCKNDIGGRFLLEDTWTTFMKARLNCSRPGEVPFYYNELQSTFFLPELDLIYGIFTTNVNSIAASAVCVFNLSAISQAFNGPFKYQENSRSAWLPYPNPNPNFQCGTMDQGLYVNLTERNLQDAQKFILMHEVVQPVTTVPSFMEDNSRFSHVAVDVVQGRDTLVHIIYLATDYGTIKKVRAPLSQSSGSCLLEEIELFPERKSEPIRSLKILHSQSVLFVGLQEHVVKIPLKRCHFHQTRGACIGAQDPYCGWDAVMKKCTSLEESLSMTQWDQSVPTCPTRNLTVDGSFGPWSPWTPCTHTDGTAVGSCLCRSRSCDSPAPQCGGWQCEGPRMEITNCSRNGGWTPWTSWSPCSTTCGIGFQVRQRSCSNPTPRHGGRVCVGQNREERYCNEHLLCPPHVFWTGWGPWERCTAQCGGGIQARRRTCENGPDCAGCNVEYQPCNTNACPELKKTTPWTPWTPVNISDNGGHYEQRFRYTCKARLPDPNLLEVGRQRIEMRYCSSDGTSGCSTDGLSGDFLRAGRYSAHTVNGAWSAWTSWSQCSRDCSRGIRNRKRVCNNPEPKYGGMPCLGPSLEFQECNILPCPVDGVWSCWSSWSKCSATCGGGHYMRTRSCTNPAPAYGGDICLGLHTEEALCNTQTCPENWSEWSEWSVCDASGTQVRTRQCILLFPVGSQCSGNTTESRPCVFDSNFIPEVSVARSSSVEEK
notes: signal peptide in the construct; Sema5A ectodomain, rat cDNA NM_001107659, residues 1-961; Assembled in pcDNA3.0; also called Fc-tagged Sema5A ectodomain protein
With B1, the values for the dissociation constant (Kd) in experiment [1] and in experiment [2] were 13 nM and 10 nM, respectively.

The term Kd denotes the concentration at which binding is half-saturated.

The record behind these values is PMC4236683, “Semaphorin 5A inhibits synaptogenesis in early postnatal- and adult-born hippocampal dentate granule cells” (eLife, 2014).
